Key:
[1] = substrate: C[C@H](O)CC(=O)SCCNC(=O)CCNC(=O)[C@H](O)C(C)(C)COP(=O)(O)OP(=O)(O)OC[C@H]1O[C@@H](n2cnc3c(N)ncnc32)[C@H](O)[C@@H]1OP(=O)(O)O; assay: purified protein; assay type: biochemical, Homo sapiens; settings: 1 mM NAD+, pH 9.0, 50 mM Tris, 50 mM KCl, 25 °C
[2] = substrate: C[C@H](O)CC(=O)SCCNC(=O)CCNC(=O)[C@H](O)C(C)(C)COP(=O)(O)OP(=O)(O)OC[C@H]1O[C@@H](n2cnc3c(N)ncnc32)[C@H](O)[C@@H]1OP(=O)(O)O; assay: purified protein; assay type: biochemical, Rattus norvegicus; settings: 1 mM NAD+, pH 9.0, 50 mM Tris, 50 mM KCl, 25 °C, HAD dehydrogenase reaction

Protein	Km [1]	kcat [1]	Km [2]	kcat [2]
HsHAD (Homo sapiens) (protein, N-terminal His6 tag in pET28a, E. coli BL21(DE3) pLysS, dimer of 35 kDa subunits) SSSSTASASAKKIIVKHVTVIGGGLMGAGIAQVAAATGHTVVLVDQTEDILAKSKKGIEESLRKVAKKKFAENLKAGDEFVEKTLSTIATSTDAASVVHSTDLVVEAIVENLKVKNELFKRLDKFAAEHTIFASNTSSLQITSIANATTRQDRFAGLHFFNPVPVMKLVEVIKTPMTSQKTFESLVDFSKALGKHPVSCKDTPGFIVNRLLVPYLMEAIRLYERGDASKEDIDTAMKLGAGYPMGPFELLDYVGLDTTKFIVDGWHEMDAENPLHQPSPSLNKLVAENKFGKKTGEGFYKYK	19 ± 0.9 µM	42 ± 2 s⁻¹	–	–
BCDE (Rattus norvegicus) (protein, truncated RnMFE1 from Ala260 (ASGQ) to the C-terminus, without domain A (ECH part); N-terminal His6 tag, E. coli BL21(DE3) pLysS) ASGQAKALQYAFFAEKSANKWSTPSGASWKTASAQPVSSVGVLGLGTMGRGIAISFARVGISVVAVESDPKQLDAAKKIITFTLEKEASRAHQNGQASAKPKLRFSSSTKELSTVDLVVEAVFEDMNLKKKVFAELSALCKPGAFLCTNTSALNVDDIASSTDRPQLVIGTHFFSPAHVMRLLEVIPSRYSSPTTIATVMSLSKKIGKIGVVVGNCYGFVGNRMLAPYYNQGFFLLEEGSKPEDVDGVLEEFGFKMGPFRVSDLAGLDVGWKIRKGQGLTGPSLPPGTPVRKRGNSRYSPLGDMLCEAGRFGQKTGKGWYQYDKPLGRIHKPDPWLSTFLSQYREVHHIEQRTISKEEILERCLYSLINEAFRILEEGMAARPEHIDVIYLHGYGWPRHKGGPMFYAASVGLPTVLEKLQKYYRQNPDIPQLEPSDYLRRLVAQGSPPLKEWQSLAGPHGSKL	–	–	5.2 ± 0.9 µM	1.6 ± 0.1 s⁻¹
RnMFE1 (Rattus norvegicus) (protein) MAEYLRLPHSLAMIRLCNPPVNAVSPTVIREVRNGLQKAGSDHTVKAIVICGANGNFCAGADIHGFSAFTPGLALGSLVDEIQRYQKPVLAAIQGVALGGGLELALGCHYRIANAKARVGLPEVTLGILPGARGTQLLPRVVGVPVALDLITSGKYLSADEALRLGILDAVVKSDPVEEAIKFAQKIIDKPIEPRRIFNKPVPSLPNMDSVFAEAIAKVRKQYPGVLAPETCVRSIQASVKHPYEVGIKEEEKLFMYLRASGQAKALQYAFFAEKSANKWSTPSGASWKTASAQPVSSVGVLGLGTMGRGIAISFARVGISVVAVESDPKQLDAAKKIITFTLEKEASRAHQNGQASAKPKLRFSSSTKELSTVDLVVEAVFEDMNLKKKVFAELSALCKPGAFLCTNTSALNVDDIASSTDRPQLVIGTHFFSPAHVMRLLEVIPSRYSSPTTIATVMSLSKKIGKIGVVVGNCYGFVGNRMLAPYYNQGFFLLEEGSKPEDVDGVLEEFGFKMGPFRVSDLAGLDVGWKIRKGQGLTGPSLPPGTPVRKRGNSRYSPLGDMLCEAGRFGQKTGKGWYQYDKPLGRIHKPDPWLSTFLSQYREVHHIEQRTISKEEILERCLYSLINEAFRILEEGMAARPEHIDVIYLHGYGWPRHKGGPMFYAASVGLPTVLEKLQKYYRQNPDIPQLEPSDYLRRLVAQGSPPLKEWQSLAGPHGSKL	–	–	11 ± 2 µM	1.9 ± 0.3 s⁻¹
RnMFE1 (Rattus norvegicus; E123A) (protein) MAEYLRLPHSLAMIRLCNPPVNAVSPTVIREVRNGLQKAGSDHTVKAIVICGANGNFCAGADIHGFSAFTPGLALGSLVDEIQRYQKPVLAAIQGVALGGGLELALGCHYRIANAKARVGLPAVTLGILPGARGTQLLPRVVGVPVALDLITSGKYLSADEALRLGILDAVVKSDPVEEAIKFAQKIIDKPIEPRRIFNKPVPSLPNMDSVFAEAIAKVRKQYPGVLAPETCVRSIQASVKHPYEVGIKEEEKLFMYLRASGQAKALQYAFFAEKSANKWSTPSGASWKTASAQPVSSVGVLGLGTMGRGIAISFARVGISVVAVESDPKQLDAAKKIITFTLEKEASRAHQNGQASAKPKLRFSSSTKELSTVDLVVEAVFEDMNLKKKVFAELSALCKPGAFLCTNTSALNVDDIASSTDRPQLVIGTHFFSPAHVMRLLEVIPSRYSSPTTIATVMSLSKKIGKIGVVVGNCYGFVGNRMLAPYYNQGFFLLEEGSKPEDVDGVLEEFGFKMGPFRVSDLAGLDVGWKIRKGQGLTGPSLPPGTPVRKRGNSRYSPLGDMLCEAGRFGQKTGKGWYQYDKPLGRIHKPDPWLSTFLSQYREVHHIEQRTISKEEILERCLYSLINEAFRILEEGMAARPEHIDVIYLHGYGWPRHKGGPMFYAASVGLPTVLEKLQKYYRQNPDIPQLEPSDYLRRLVAQGSPPLKEWQSLAGPHGSKL	–	–	10 ± 0.6 µM	2.4 ± 0.1 s⁻¹

From paper PMC10988713
